Experimental findings from FireProtDB (doi:10.1006/jmbi.1993.1508) are described below.

B1: Ribonuclease, P00648 (parent)
chain: MMKMEGIALKKRLSWISVCLLVLVSAAGMLFSTAAKTETSSHKAHTEAQVINTFDGVADYLQTYHKLPDNYITKSEAQALGWVASKGNLADVAPGKSIGGDIFSNREGKLPGKSGRTWREADINYTSGFRNSDRILYSSDWLIYKTTDHYQTFTKIR

The series covers variants of B1. Particulars: Bacillus amyloliquefaciens; pH 6.3; 25 °C; Urea; Fluorescence; MES 50 mM; reversible: yes; structure 1BNI; whole UniProt chain shown.

On to K155R, for which the “ddG of mutation (higher = less stable)” value was -0.78 kcal/mol, the denaturant m value worked out at 1.91 kcal/mol/M, the “denaturant midpoint (higher = more stable)” value (“denaturant midpoint” for short) worked out at 5 M and the unfolding free energy amounted to 9.6 kcal/mol.

In the case of Q62I T63R K66R, the “ddG of mutation (higher = less stable)” value was -1.98 kcal/mol, the denaturant m value stood at 2 kcal/mol/M, the “denaturant midpoint” value came to 5.42 M and the unfolding free energy came to 10.8 kcal/mol.

Turning to H65K, the “ddG of mutation (higher = less stable)” value was determined as 0.92 kcal/mol, the denaturant m value amounted to 2 kcal/mol/M, the “denaturant midpoint” value came out at 3.9 M and the unfolding free energy is 7.9 kcal/mol.

On to Q78S, for which the “ddG of mutation (higher = less stable)” value was -0.28 kcal/mol, the denaturant m value is 2.05 kcal/mol/M, the “denaturant midpoint” value came to 4.4 M and the unfolding free energy is 9.1 kcal/mol.

Take Q62I: the “ddG of mutation (higher = less stable)” value is -1.38 kcal/mol, the denaturant m value came out at 2.02 kcal/mol/M, the “denaturant midpoint” value worked out at 5 M and the unfolding free energy came out at 10.2 kcal/mol.

In the case of T63R, the “ddG of mutation (higher = less stable)” value was -0.78 kcal/mol, the denaturant m value is 1.98 kcal/mol/M, the “denaturant midpoint” value amounted to 4.8 M and the unfolding free energy is 9.6 kcal/mol.

Consider D91E, for which the “ddG of mutation (higher = less stable)” value was found to be 0.32 kcal/mol, the denaturant m value turned out to be 1.84 kcal/mol/M, the “denaturant midpoint” value worked out at 4.6 M and the unfolding free energy is 8.5 kcal/mol.

For the variant Q151A, the “ddG of mutation (higher = less stable)” value was 0.02 kcal/mol, the denaturant m value turned out to be 1.98 kcal/mol/M, the “denaturant midpoint” value amounted to 4.4 M and the unfolding free energy was 8.8 kcal/mol.

On to I135L, for which the “ddG of mutation (higher = less stable)” value stood at 0.02 kcal/mol, the denaturant m value was found to be 1.98 kcal/mol/M, the “denaturant midpoint” value was 4.4 M and the unfolding free energy is 8.8 kcal/mol.

On to K109R, for which the “ddG of mutation (higher = less stable)” value turned out to be 0.02 kcal/mol, the denaturant m value worked out at 2.04 kcal/mol/M, the “denaturant midpoint” value stood at 4.3 M and the unfolding free energy turned out to be 8.8 kcal/mol.

Turning to L136V, the “ddG of mutation (higher = less stable)” value was determined as 0.32 kcal/mol, the denaturant m value stood at 1.92 kcal/mol/M, the “denaturant midpoint” value came to 4.4 M and the unfolding free energy is 8.5 kcal/mol.

Regarding I102V, the “ddG of mutation (higher = less stable)” value was 0.32 kcal/mol, the denaturant m value amounted to 1.93 kcal/mol/M, the “denaturant midpoint” value worked out at 4.4 M and the unfolding free energy came out at 8.5 kcal/mol.

On to K66R, for which the “ddG of mutation (higher = less stable)” value is -0.88 kcal/mol, the denaturant m value came to 2.08 kcal/mol/M, the “denaturant midpoint” value was determined as 4.6 M and the unfolding free energy stood at 9.7 kcal/mol.

For S132A, the “ddG of mutation (higher = less stable)” value was -0.28 kcal/mol, the denaturant m value amounted to 2.02 kcal/mol/M, the “denaturant midpoint” value stood at 4.51 M and the unfolding free energy is 9.1 kcal/mol.

On to T126V, for which the “ddG of mutation (higher = less stable)” value was -0.18 kcal/mol, the denaturant m value is 1.91 kcal/mol/M, the “denaturant midpoint” value amounted to 4.7 M and the unfolding free energy came to 9 kcal/mol.

For Q62I T63R K66R G112S K113A K155R, the “ddG of mutation (higher = less stable)” value was -2.98 kcal/mol, the denaturant m value came out at 1.86 kcal/mol/M, the “denaturant midpoint” value was 6.34 M and the unfolding free energy worked out at 11.8 kcal/mol.

On to G112S, for which the “ddG of mutation (higher = less stable)” value was -0.98 kcal/mol, the denaturant m value amounted to 2.03 kcal/mol/M, the “denaturant midpoint” value amounted to 4.8 M and the unfolding free energy is 9.8 kcal/mol.

For the variant K113A, the “ddG of mutation (higher = less stable)” value is -0.98 kcal/mol, the denaturant m value came to 2.09 kcal/mol/M, the “denaturant midpoint” value was found to be 4.7 M and the unfolding free energy worked out at 9.8 kcal/mol.
